The record followed here is patent publication US20030078373A1.

The target of one experiment is barnase (UniProt P00648). The experiment is described as follows: cell-based or functional assay.
In experiment [1] the target is cyclophilin A (UniProt P62937). The experiment is described as follows: refolding chromatography, initially denatured cyclophilin, active peak.
In experiment [2] the target is cyclophilin A (UniProt P62937). The experiment is described as follows: refolding chromatography, initially denatured cyclophilin, inactive peak.
The target in experiment [3] is IGPS (49-252) (indoleglycerol phosphate synthase lacking residues 1-48). The experiment is described as follows: refolding chromatography, urea-denatured IGPS (49-252) on the fragment column, peak 1.
The target is the same in experiment [4]. The experiment in a line: refolding chromatography, urea-denatured IGPS (49-252) on the fragment column, peak 2 (refolded protein).

Chain of barnase (P00648 48-157 limits assumed): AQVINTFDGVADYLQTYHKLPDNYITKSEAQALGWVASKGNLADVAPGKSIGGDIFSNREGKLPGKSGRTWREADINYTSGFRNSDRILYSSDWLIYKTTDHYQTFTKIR

In the experiment with barnase, GroEL 191-345 gave a C, factor by which EX2 mechanism exchange is catalysed by GroEL fragment (globally exchanging amide protons of barnase) of 10 fold; a C, factor by which EX2 mechanism exchange is catalysed by GroEL fragment (locally exchanging amide protons of barnase) of 5 fold; a C, factor by which EX2 mechanism exchange is catalysed by GroEL fragment (mixed amide protons of barnase) of 1 fold.
As to “ht-GroEL 191-345 immobilised on Ni-NTA agarose”, the Kav with cyclophilin A [1] is 1.43; in the experiment with cyclophilin A [2], 0.38; in experiment [3], 1; in experiment [4], 1.7.
